This data set addresses CD3 epsilon (CD3ε), recombinant extracellular Fc chimera (Homo sapiens, UniProt P07766 P07766:23-126). In words: HPLC size exclusion shift, 1 hr 37 C and 4 C. As to conditions: tags: Fc chimera, His tag; Abcam ab220590; label: Cy5 via hybridised CpG'-Cy5 complementary strand. On the procedure:
1 μM of folded Cy5 labeled aptamer was mixed with 50 µL of protein to a final volume of 60 ul and incubated for 1 hr at 4° C. or 37° C. Next, to detect the Cy-labelled aptamers, samples were analyzed at 570 nm absorption via HPLC ProSEC 300S size exclusion column (Agilent).
Top five candidates (CS6, CS7, CS8, CS8c, and CS9 SEQ ID NO. 1-5) were synthesized with a 5(5′) phosphothioated CpG motif and assayed for Human CD3ε (hCD3ε) binding via the HPLC size exclusion column. In this method, the aptamers were labelled with Cy5 complementary sequence to the CpG site (Cy5-CpG′). Then, the folded-labelled candidates are incubated, each, with the CD3ε- recombinant protein or with negative control IgG1 (1 hr at 37° C. and 4° C.) and analyzed by HPLC ProSEC 300S size exclusion column (Agilent) at 570 nm absorption. Upon protein binding, the aptamer-protein complex has a greater mass than a free aptamer and as a result, the retention time (RT) at the column is expected to be shorter. Inversely, in the case of non-binding aptamer, the RT in the presence of protein will be the same as in the absence of the protein. As a control, PolyT sequence was used.
For orientation: Size exclusion chromatography separates by hydrodynamic size, large species first.

The text below walks through data of patent US20220186223, “T-LYMPHOCYTE BINDING APTAMERS” (Aummune Ltd., published 2022).

CD3 epsilon (CD3ε), recombinant extracellular Fc chimera, sequence (P07766 23-126, change not shown, one chain of several): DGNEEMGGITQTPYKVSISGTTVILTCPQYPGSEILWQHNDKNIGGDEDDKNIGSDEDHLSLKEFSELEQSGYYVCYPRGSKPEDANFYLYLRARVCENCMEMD

B1: CS9 (ssDNA)
DNA: TTGTAAGGACTGCTTAGGATTGCGAAAACAATATTCGTAT
modifications: synthesized with 5' CpG motif having 5 PS linkages (extension not in ref)
For the molecule B1, the binding result is reported as “binds”.

B2: CS8 (ssDNA)
DNA: CCCTTACCCCTTTTAGGTCTGCTTAGGATTGCGAAAAAAG
modifications: synthesized with 5' CpG motif having 5 PS linkages (extension not in ref)
Take B2: the binding result is reported as “binds”.

B3: CS8c (CS8cut) (ssDNA)
DNA: CTTTTAGGTCTGCTTAGGATTGCGAAAAAAG
modifications: synthesized with 5' CpG motif having 5 PS linkages (extension not in ref)
Turning to B3, the binding result is listed as “binds”.

B4: CS7 (ssDNA)
DNA: CATTTCATAGGGCTGCTTAGGATTGCGAAGGTAATGCCAG
modifications: synthesized with 5' CpG motif having 5 PS linkages (extension not in ref)
Regarding B4, the binding result is recorded as “binds”.
